The values that follow come from the Immune Epitope Database (IEDB).

Bounds are passed on as bounds.

For the first assay, the target named is HLA-A*31:01. The experiment in a line: IEDB peptide-MHC binding, purified MHC/competitive/radioactivity; filed as Kd, often an IC50 or EC50 that approximates it; ≥ and ≤ were set here for values at or beyond the usual limits of such assays. The conditions noted are these: source organism: Vaccinia virus WR.
As to HAFDAPTLY, the dissociation constant (Kd) is not below 48400 nM.

Turning to HLRVLFSIFY, the equilibrium dissociation constant (Kd) is 1010 nM.

In the case of IAARILSEK, the Kd came to 4550 nM.

Turning to IAPGIADIR, the Kd is not below 23900 nM.

As to IFPGDKTSY, the Kd was not below 56700 nM.

In the case of IIFLKLFKK, the equilibrium dissociation constant (Kd) came out at 5.67 nM.

KIIAVFDSK: the Kd was 126 nM.

Consider KSTVKLVQR, for which the Kd is 4.44 nM.

Turning to LFIDRGSIK, the Kd came out at 2140 nM.

On to LIMFEQYFIY, for which the Kd is 14000 nM.

LLLPSTDVNK: the Kd came to 3020 nM.

Turning to LLNSMMNRDK, the equilibrium dissociation constant (Kd) was found to be 690 nM.

For LSARNKLFK, the dissociation constant Kd came to 168 nM.

LSSIKSKSRR: the dissociation constant (Kd) was determined as 644 nM.

For MATMLEYVRY, the Kd turned out to be 1620 nM.

For the sequence NAISSRVDRY, the Kd was determined as 11000 nM.

On to NFDYPFFRK, for which the dissociation constant Kd stood at 90.2 nM.

As to NFEALEATK, the Kd was 6740 nM.

For the sequence NFGTIILNK, the equilibrium dissociation constant (Kd) turned out to be 1270 nM.

Take NIADAARHY: the Kd was determined as 5040 nM.

As for NLEMIDERK, the Kd was found to be 9460 nM.

Turning to NSFIISTLNK, the Kd is 648 nM.

Consider PIFSDLLKY, for which the dissociation constant (Kd) is not below 56900 nM.

For the sequence PISELSRLR, the Kd amounted to 484 nM.

In the next assay the target is HLA-A*33:01. Described as above. The conditions noted are these: source organism: Mammarenavirus brazilense.
Turning to MVNHSTYYV, the Kd came out at 810 nM.

Still in this assay, the particulars now being: source organism: Mammarenavirus guanaritoense.
In the case of LCCSLDHSK, the Kd turned out to be 7340 nM.

The assay is the same for the next values; noted with them: source organism: Mammarenavirus juninense.
Regarding KYIHCFRKPH, the Kd was not below 46100 nM.

Staying with this assay, now noted: source organism: Mammarenavirus machupoense.
EWIEFTNFK: the dissociation constant Kd is 66.7 nM.

For LTMQRLLANH, the dissociation constant (Kd) turned out to be 8440 nM.

The assay is the same for the next values; noted with them: source organism: SARS coronavirus Tor2.
Consider GLVASIKNFK, for which the Kd is not below 20600 nM.

For GTSTDVVYR, the Kd turned out to be 481 nM.

Consider IAQSKGLYR, for which the dissociation constant Kd turned out to be 152 nM.

As for LLDSYFVVK, the equilibrium dissociation constant (Kd) was 12700 nM.

Regarding LLFVVEVVDK, the dissociation constant (Kd) was found to be 6080 nM.

With LMNVITLVYK, the dissociation constant Kd came out at 5640 nM.

The same assay, now with this note: source organism: Vaccinia virus WR.
As to CFKEASFSK, the dissociation constant (Kd) worked out at 11.6 nM.

Take CTDPSERVFK: the dissociation constant (Kd) is not below 54500 nM.

Consider DFESVTNSVY, for which the Kd was 14800 nM.

DLIVTFRERY: the Kd is 1240 nM.

For the sequence DSPLTLLIK, the equilibrium dissociation constant (Kd) was not below 77700 nM.

DVKVLAARLK: the Kd was 5070 nM.

Take EISSNDNAK: the Kd is 9600 nM.

For ELNIVDEIIK, the dissociation constant Kd turned out to be 13900 nM.

On to ESRDRKWLY, for which the Kd stood at 10100 nM.

Regarding FFRKLVLTNK, the dissociation constant (Kd) came to 243 nM.

As for FLDKSIHLTK, the dissociation constant Kd was 530 nM.

As for GIFKNNDVR, the Kd is not below 28400 nM.

For the sequence HAFDAPTLY, the dissociation constant Kd was not below 77700 nM.

In the case of HLRVLFSIFY, the Kd was 1850 nM.

As to IAARILSEK, the equilibrium dissociation constant (Kd) was 4870 nM.

Regarding IAPGIADIR, the equilibrium dissociation constant (Kd) was not below 29000 nM.

As for IFPGDKTSY, the Kd is not below 77700 nM.

In the case of IIFLKLFKK, the Kd is 4.85 nM.

KIIAVFDSK: the Kd was found to be 7970 nM.

For KSTVKLVQR, the Kd worked out at 1480 nM.

Regarding LFIDRGSIK, the dissociation constant Kd was 1110 nM.

Take LIMFEQYFIY: the Kd stood at 8190 nM.

Consider LLLPSTDVNK, for which the Kd was not below 70000 nM.

In the case of LLNSMMNRDK, the Kd is not below 27500 nM.

Regarding LSARNKLFK, the Kd was found to be 16100 nM.

As for LSSIKSKSRR, the Kd stood at 16500 nM.

In the case of MATMLEYVRY, the equilibrium dissociation constant (Kd) stood at 13500 nM.

Consider NAISSRVDRY, for which the dissociation constant Kd was not below 70000 nM.

Turning to NFDYPFFRK, the dissociation constant Kd is 308 nM.

Regarding NFEALEATK, the Kd came out at 1060 nM.

For NFGTIILNK, the equilibrium dissociation constant (Kd) was found to be 1540 nM.

As for NIADAARHY, the Kd is 7730 nM.

Turning to NLEMIDERK, the Kd is not below 77700 nM.

For the sequence NSFIISTLNK, the Kd is 4460 nM.

Regarding PIFSDLLKY, the dissociation constant (Kd) is not below 77700 nM.

For PISELSRLR, the Kd is 919 nM.

The target in another assay is HLA-A*68:01. The assay is described as above. The conditions noted are these: source organism: Mammarenavirus brazilense.
Turning to MVNHSTYYV, the Kd was 94.8 nM.

The assay is the same for the next values; noted with them: source organism: Mammarenavirus guanaritoense.
On to LCCSLDHSK, for which the equilibrium dissociation constant (Kd) was not below 32700 nM.

Still in this assay, the particulars now being: source organism: Mammarenavirus juninense.
Take KYIHCFRKPH: the equilibrium dissociation constant (Kd) was not below 70100 nM.

Staying with this assay, now noted: source organism: Mammarenavirus machupoense.
With EWIEFTNFK, the equilibrium dissociation constant (Kd) turned out to be 4.52 nM.

With LTMQRLLANH, the Kd came to 1610 nM.

The assay is the same for the next values; noted with them: source organism: SARS coronavirus Tor2.
GLVASIKNFK: the Kd amounted to 507 nM.

For GTSTDVVYR, the Kd is 16.5 nM.

For the sequence IAQSKGLYR, the Kd is 105 nM.

Regarding LLDSYFVVK, the equilibrium dissociation constant (Kd) stood at 2060 nM.

LLFVVEVVDK: the Kd is 1330 nM.

Regarding LMNVITLVYK, the Kd was determined as 748 nM.

Still in this assay, the particulars now being: source organism: Vaccinia virus WR.
As for CFKEASFSK, the Kd amounted to 1230 nM.

CTDPSERVFK: the Kd is 56 nM.

For DFESVTNSVY, the dissociation constant (Kd) is 11800 nM.

For DLIVTFRERY, the Kd was found to be 23.5 nM.

Consider DSPLTLLIK, for which the dissociation constant Kd turned out to be 1320 nM.

For DVKVLAARLK, the Kd came to 592 nM.

As for EISSNDNAK, the Kd worked out at 31 nM.

ELNIVDEIIK: the equilibrium dissociation constant (Kd) came to 2650 nM.

In the case of ESRDRKWLY, the Kd turned out to be 3930 nM.

For FFRKLVLTNK, the Kd came to 3730 nM.

On to FLDKSIHLTK, for which the equilibrium dissociation constant (Kd) turned out to be 235 nM.

With GIFKNNDVR, the Kd is 132 nM.

For the sequence HAFDAPTLY, the dissociation constant (Kd) was found to be 30.3 nM.

For HLRVLFSIFY, the Kd turned out to be 2080 nM.

With IAARILSEK, the Kd was found to be 11.8 nM.

For IAPGIADIR, the Kd was 29.4 nM.

Consider IFPGDKTSY, for which the Kd amounted to 17700 nM.

On to IIFLKLFKK, for which the Kd came to 13.2 nM.

In the case of KIIAVFDSK, the equilibrium dissociation constant (Kd) was 474 nM.

Regarding KSTVKLVQR, the dissociation constant Kd was 1530 nM.

With LFIDRGSIK, the equilibrium dissociation constant (Kd) was determined as 1290 nM.

In the case of LIMFEQYFIY, the Kd was 1720 nM.

Regarding LLLPSTDVNK, the dissociation constant (Kd) was 2920 nM.

As to LLNSMMNRDK, the Kd was not below 70200 nM.

Consider LSARNKLFK, for which the dissociation constant (Kd) turned out to be 14.9 nM.

Turning to LSSIKSKSRR, the Kd came out at 163 nM.

MATMLEYVRY: the equilibrium dissociation constant (Kd) was determined as 116 nM.

NAISSRVDRY: the Kd was determined as 10700 nM.

As to NFDYPFFRK, the Kd came to 393 nM.

In the case of NFEALEATK, the dissociation constant Kd is 704 nM.

Take NFGTIILNK: the dissociation constant Kd was 508 nM.

For the sequence NIADAARHY, the Kd was determined as 469 nM.

As for NLEMIDERK, the equilibrium dissociation constant (Kd) turned out to be 49.4 nM.

NSFIISTLNK: the dissociation constant Kd was 19.2 nM.

As to PIFSDLLKY, the dissociation constant (Kd) is not below 36900 nM.

Turning to PISELSRLR, the dissociation constant (Kd) came out at 679 nM.
